Results reported in PMC4604023.
Where two headings read alike, the source gives them in different places.

Assays:
nucleocapsid protein N [1] = target: nucleocapsid protein N (Rift Valley fever virus, UniProt P21700 1-245); assay: filter binding
nucleocapsid protein N [2] = target: nucleocapsid protein N (Rift Valley fever virus, UniProt P21700 1-245); assay: filter binding; remark: listed apart in the source

B1: MBE87 (structured_RNA)
RNA: GGCAUUACGGCCGGGAGCCAGUAUUACUGAUUGAUGAUUCUGUGGGCGUCUUCUAG
B1: binds (nucleocapsid protein N [1]).

B2: AS4 (AS-4) (structured_RNA)
RNA: GGGGCGCGUUCUAAACAACGAUUGCCGACAAGACGAUUUCUGGGUCAAACUUUAUUCG
B2: binds (nucleocapsid protein N [2]).

B3: AS1 (AS-1) (structured_RNA)
RNA: GGUCGACAGGCUAGGCCGUCUAAAGCUGAUUGCUCCCGGGGAAUAAUUAUUGACAGCU
B3: binds (nucleocapsid protein N [2]).

B4: AS2 (AS-2) (structured_RNA)
RNA: GGAGUAUCUGUCGGCAUCACGCUUGGAUGUGCAAGGCUCUUUAUCUCUAUUAUGCAAG
B4: binds (nucleocapsid protein N [2]).
